In patent publication US20220119825A1, “SCALABLE PEPTIDE-GPCR INT[…] SYSTEMS” (THE TRUSTEES OF COLUMBIA UNIVERSITY IN THE CITY OF NEW YORK, priority 2019, published 2022):

How the values were obtained:
Experiment in all cases: cell-based or functional assay
[1] = target: T1, Sj.Ste2, Ste2-like mating GPCR of Schizosaccharomyces japonicus (Schizosaccharomyces japonicus)
T1 chain: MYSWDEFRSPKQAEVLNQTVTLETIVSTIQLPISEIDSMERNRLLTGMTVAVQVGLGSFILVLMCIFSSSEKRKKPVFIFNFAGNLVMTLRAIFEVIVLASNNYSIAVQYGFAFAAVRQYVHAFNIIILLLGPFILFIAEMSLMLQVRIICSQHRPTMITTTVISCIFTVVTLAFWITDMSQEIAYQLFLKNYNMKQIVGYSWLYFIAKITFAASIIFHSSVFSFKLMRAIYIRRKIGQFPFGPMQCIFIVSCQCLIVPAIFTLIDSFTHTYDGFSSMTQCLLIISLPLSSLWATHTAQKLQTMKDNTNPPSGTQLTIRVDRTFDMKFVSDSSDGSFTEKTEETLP

[2] = target: T2, So.Ste2, Ste2-like mating GPCR of Schizosaccharomyces octosporus (Schizosaccharomyces octosporus)
T2 chain: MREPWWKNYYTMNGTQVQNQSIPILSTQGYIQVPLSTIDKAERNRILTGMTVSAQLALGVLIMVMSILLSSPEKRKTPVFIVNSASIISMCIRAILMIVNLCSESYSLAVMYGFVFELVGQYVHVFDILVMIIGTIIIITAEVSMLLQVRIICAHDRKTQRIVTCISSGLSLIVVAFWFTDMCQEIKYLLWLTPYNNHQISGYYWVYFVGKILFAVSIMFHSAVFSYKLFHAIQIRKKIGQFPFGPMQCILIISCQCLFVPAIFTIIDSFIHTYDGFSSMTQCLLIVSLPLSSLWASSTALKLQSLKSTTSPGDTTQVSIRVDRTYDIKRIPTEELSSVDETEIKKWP

[3] = target: T3, Nc.Ste2, Ste2-like mating GPCR of Neurospora crassa (Neurospora crassa)
T3 chain: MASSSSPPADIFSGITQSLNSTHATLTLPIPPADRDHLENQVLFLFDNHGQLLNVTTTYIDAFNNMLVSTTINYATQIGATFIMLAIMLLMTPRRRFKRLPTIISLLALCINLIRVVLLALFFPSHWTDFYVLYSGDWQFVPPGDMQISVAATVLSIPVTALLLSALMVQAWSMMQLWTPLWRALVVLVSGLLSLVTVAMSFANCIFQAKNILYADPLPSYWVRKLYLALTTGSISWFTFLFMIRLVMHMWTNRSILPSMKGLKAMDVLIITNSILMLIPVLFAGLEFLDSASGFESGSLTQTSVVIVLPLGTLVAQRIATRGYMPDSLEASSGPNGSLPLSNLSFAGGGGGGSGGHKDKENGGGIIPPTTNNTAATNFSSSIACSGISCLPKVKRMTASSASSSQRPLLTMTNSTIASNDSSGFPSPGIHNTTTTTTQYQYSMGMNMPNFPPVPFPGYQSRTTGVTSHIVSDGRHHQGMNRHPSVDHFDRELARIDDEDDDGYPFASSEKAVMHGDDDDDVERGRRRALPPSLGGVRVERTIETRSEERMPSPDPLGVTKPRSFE

[4] = target: T4, Sp.Ste2, Ste2-like mating GPCR of Schizosaccharomyces pombe (Schizosaccharomyces pombe, UniProt Q00619 1-348)
T4 sequence: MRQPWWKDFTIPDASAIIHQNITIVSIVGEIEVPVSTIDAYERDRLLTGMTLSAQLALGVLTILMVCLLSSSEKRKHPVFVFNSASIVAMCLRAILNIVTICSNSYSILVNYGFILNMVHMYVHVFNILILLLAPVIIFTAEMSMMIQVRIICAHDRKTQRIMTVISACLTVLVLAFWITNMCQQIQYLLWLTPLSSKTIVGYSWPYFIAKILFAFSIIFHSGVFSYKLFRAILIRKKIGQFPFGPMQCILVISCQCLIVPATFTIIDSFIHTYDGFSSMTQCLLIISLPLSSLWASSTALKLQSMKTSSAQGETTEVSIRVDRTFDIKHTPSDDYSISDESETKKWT

[5] = target: T5, Vp1.Ste2, Ste2-like mating GPCR of Vanderwaltozyma polyspora1 (Vanderwaltozyma polyspora)
T5 chain: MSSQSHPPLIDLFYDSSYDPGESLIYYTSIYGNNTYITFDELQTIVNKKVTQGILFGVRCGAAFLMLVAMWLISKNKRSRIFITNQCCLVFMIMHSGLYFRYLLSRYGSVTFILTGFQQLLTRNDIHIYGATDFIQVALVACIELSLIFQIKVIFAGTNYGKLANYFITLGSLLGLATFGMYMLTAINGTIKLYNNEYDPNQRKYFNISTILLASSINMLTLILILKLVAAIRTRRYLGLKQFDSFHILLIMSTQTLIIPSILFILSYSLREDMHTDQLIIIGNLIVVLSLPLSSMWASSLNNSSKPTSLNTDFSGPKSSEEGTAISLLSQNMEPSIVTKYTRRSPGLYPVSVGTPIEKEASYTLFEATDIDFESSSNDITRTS

## VSDRVKQMLSHWWNFRNPDTANL [Sj peptide ligand #1 VSDRVKQMLSHWWNFRNPDTANL]
[1]
  Bttm (FUS1p-RFP reporter): 21.2 fluorescence/A600 (not printed)
  EC50 (FUS1p-RFP reporter): -7.8 log10 M (not printed)
  Fold Change (FUS1p-RFP reporter): 14.7 fold
  Span (FUS1p-RFP reporter): 290 fluorescence/A600 (not printed)
  Top (FUS1p-RFP reporter): 311 fluorescence/A600 (not printed)

## TYEDFLRVYKNWWSFQNPDRPDL [So peptide ligand #1 TYEDFLRVYKNWWSFQNPDRPDL]
[2]
  Bttm (FUS1p-RFP reporter): 23.7 fluorescence/A600 (not printed)
  EC50 (FUS1p-RFP reporter): -7.8 log10 M (not printed)
  Fold Change (FUS1p-RFP reporter): 11.1 fold
  Span (FUS1p-RFP reporter): 240 fluorescence/A600 (not printed)
  Top (FUS1p-RFP reporter): 263 fluorescence/A600 (not printed)

## QWCRIHGQSCW [Nc peptide ligand #1 QWCRIHGQSCW]
[3]
  Bttm (FUS1p-RFP reporter): 27.6 fluorescence/A600 (not printed)
  EC50 (FUS1p-RFP reporter): -6.3 log10 M (not printed)
  Fold Change (FUS1p-RFP reporter): 10.4 fold
  Span (FUS1p-RFP reporter): 259 fluorescence/A600 (not printed)
  Top (FUS1p-RFP reporter): 287 fluorescence/A600 (not printed)

## TYADFLRAYQSWNTFVNPDRPNL [Sp peptide ligand #1 TYADFLRAYQSWNTFVNPDRPNL]
[4]
  Bttm (FUS1p-RFP reporter): 29.6 fluorescence/A600 (not printed)
  EC50 (FUS1p-RFP reporter): -6.2 log10 M (not printed)
  Fold Change (FUS1p-RFP reporter): 7.6 fold
  Span (FUS1p-RFP reporter): 195 fluorescence/A600 (not printed)
  Top (FUS1p-RFP reporter): 224 fluorescence/A600 (not printed)

## WHWLELDNGQPIY [Vp1 peptide ligand #1 WHWLELDNGQPIY]
[5]
  Bttm (FUS1p-RFP reporter): 28.8 fluorescence/A600 (not printed)
  EC50 (FUS1p-RFP reporter): -8.6 log10 M (not printed)
  Fold Change (FUS1p-RFP reporter): 8.4 fold
  Span (FUS1p-RFP reporter): 214 fluorescence/A600 (not printed)
  Top (FUS1p-RFP reporter): 243 fluorescence/A600 (not printed)
